Reference: patent publication US12679878B2, “CRF2 receptor agonists and their use in therapy” (SANOFI, priority 2020, dated 2026)
Starred links: 1 amine or outer side, 2 acyl side, 3 side chain; linkers in the order of their positions; H or OH if unused. Non-standard residues stand in square brackets, D forms with d. Groups on a side chain read outwards from the residue. No end group written: not given here. *: point of attachment. C18 diacid = O=C(O)CCCCCCCCCCCCCCCCC(=O)*; γGlu = O=C(O)[C@H](CCC(=O)[*:2])N[*:1]; Palmitoyl = CCCCCCCCCCCCCCCC(=O)*; AEEA = NCCOCCOCC(=O)O; Aib = CC(C)(N)C(=O)O

T1: CRF1R receptor (anti-target) (UniProt P34998 24-415, limits assumed)
T1 sequence (looked up): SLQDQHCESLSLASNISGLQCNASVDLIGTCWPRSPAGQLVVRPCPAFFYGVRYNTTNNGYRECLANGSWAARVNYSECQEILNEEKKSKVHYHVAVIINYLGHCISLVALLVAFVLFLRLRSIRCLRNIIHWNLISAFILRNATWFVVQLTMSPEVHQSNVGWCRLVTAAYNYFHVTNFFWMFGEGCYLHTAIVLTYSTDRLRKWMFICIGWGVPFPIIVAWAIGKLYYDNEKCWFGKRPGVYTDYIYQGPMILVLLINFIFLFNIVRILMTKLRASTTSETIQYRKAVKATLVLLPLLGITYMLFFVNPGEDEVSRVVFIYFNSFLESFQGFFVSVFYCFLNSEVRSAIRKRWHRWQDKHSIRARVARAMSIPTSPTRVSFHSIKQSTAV

B1: peptide of SEQ ID NO: 29 (peptide)
peptide: IVLSLD[dV]PTKLK([γGlu-Palmitoyl])KKLLKQERKRKERE[Aib]AEKAARILERV-NH2
modifications: N-terminus assumed
SMILES: CCCCCCCCCCCCCCCC(=O)N[C@@H](CCC(=O)NCCCC[C@H](NC(=O)[C@H](CC(C)C)NC(=O)[C@H](CCCCN)NC(=O)[C@@H](NC(=O)[C@@H]1CCCN1C(=O)[C@H](NC(=O)[C@H](CC(=O)O)NC(=O)[C@H](CC(C)C)NC(=O)[C@H](CO)NC(=O)[C@H](CC(C)C)NC(=O)[C@@H](NC(=O)[C@@H](N)[C@@H](C)CC)C(C)C)C(C)C)[C@@H](C)O)C(=O)N[C@@H](CCCCN)C(=O)N[C@@H](CCCCN)C(=O)N[C@@H](CC(C)C)C(=O)N[C@@H](CC(C)C)C(=O)N[C@@H](CCCCN)C(=O)N[C@@H](CCC(N)=O)C(=O)N[C@@H](CCC(=O)O)C(=O)N[C@@H](CCCNC(=N)N)C(=O)N[C@@H](CCCCN)C(=O)N[C@@H](CCCNC(=N)N)C(=O)N[C@@H](CCCCN)C(=O)N[C@@H](CCC(=O)O)C(=O)N[C@@H](CCCNC(=N)N)C(=O)N[C@@H](CCC(=O)O)C(=O)NC(C)(C)C(=O)N[C@@H](C)C(=O)N[C@@H](CCC(=O)O)C(=O)N[C@@H](CCCCN)C(=O)N[C@@H](C)C(=O)N[C@@H](C)C(=O)N[C@@H](CCCNC(=N)N)C(=O)N[C@H](C(=O)N[C@@H](CC(C)C)C(=O)N[C@@H](CCC(=O)O)C(=O)N[C@@H](CCCNC(=N)N)C(=O)N[C@H](C(N)=O)C(C)C)[C@@H](C)CC)C(=O)O
B2: peptide of SEQ ID NO: 30 (peptide)
peptide: IVLSLD[dV]PTKLK([γGlu-Palmitoyl])KKLLKQERKRKEREQAEKAARILERV-NH2
modifications: N-terminus assumed
SMILES: CCCCCCCCCCCCCCCC(=O)N[C@@H](CCC(=O)NCCCC[C@H](NC(=O)[C@H](CC(C)C)NC(=O)[C@H](CCCCN)NC(=O)[C@@H](NC(=O)[C@@H]1CCCN1C(=O)[C@H](NC(=O)[C@H](CC(=O)O)NC(=O)[C@H](CC(C)C)NC(=O)[C@H](CO)NC(=O)[C@H](CC(C)C)NC(=O)[C@@H](NC(=O)[C@@H](N)[C@@H](C)CC)C(C)C)C(C)C)[C@@H](C)O)C(=O)N[C@@H](CCCCN)C(=O)N[C@@H](CCCCN)C(=O)N[C@@H](CC(C)C)C(=O)N[C@@H](CC(C)C)C(=O)N[C@@H](CCCCN)C(=O)N[C@@H](CCC(N)=O)C(=O)N[C@@H](CCC(=O)O)C(=O)N[C@@H](CCCNC(=N)N)C(=O)N[C@@H](CCCCN)C(=O)N[C@@H](CCCNC(=N)N)C(=O)N[C@@H](CCCCN)C(=O)N[C@@H](CCC(=O)O)C(=O)N[C@@H](CCCNC(=N)N)C(=O)N[C@@H](CCC(=O)O)C(=O)N[C@@H](CCC(N)=O)C(=O)N[C@@H](C)C(=O)N[C@@H](CCC(=O)O)C(=O)N[C@@H](CCCCN)C(=O)N[C@@H](C)C(=O)N[C@@H](C)C(=O)N[C@@H](CCCNC(=N)N)C(=O)N[C@H](C(=O)N[C@@H](CC(C)C)C(=O)N[C@@H](CCC(=O)O)C(=O)N[C@@H](CCCNC(=N)N)C(=O)N[C@H](C(N)=O)C(C)C)[C@@H](C)CC)C(=O)O
B3: peptide of SEQ ID NO: 88 (peptide)
peptide: IVLSLDVPIKLK([AEEA-AEEA-γGlu-C18 diacid])QILLKQERQKKQREKAKTN[Aib]QILAQV-NH2
modifications: N-terminus assumed
SMILES: CC[C@H](C)[C@H](N)C(=O)N[C@H](C(=O)N[C@@H](CC(C)C)C(=O)N[C@@H](CO)C(=O)N[C@@H](CC(C)C)C(=O)N[C@@H](CC(=O)O)C(=O)N[C@H](C(=O)N1CCC[C@H]1C(=O)N[C@H](C(=O)N[C@@H](CCCCN)C(=O)N[C@@H](CC(C)C)C(=O)N[C@@H](CCCCNC(=O)COCCOCCNC(=O)COCCOCCNC(=O)CC[C@H](NC(=O)CCCCCCCCCCCCCCCCC(=O)O)C(=O)O)C(=O)N[C@@H](CCC(N)=O)C(=O)N[C@H](C(=O)N[C@@H](CC(C)C)C(=O)N[C@@H](CC(C)C)C(=O)N[C@@H](CCCCN)C(=O)N[C@@H](CCC(N)=O)C(=O)N[C@@H](CCC(=O)O)C(=O)N[C@@H](CCCNC(=N)N)C(=O)N[C@@H](CCC(N)=O)C(=O)N[C@@H](CCCCN)C(=O)N[C@@H](CCCCN)C(=O)N[C@@H](CCC(N)=O)C(=O)N[C@@H](CCCNC(=N)N)C(=O)N[C@@H](CCC(=O)O)C(=O)N[C@@H](CCCCN)C(=O)N[C@@H](C)C(=O)N[C@@H](CCCCN)C(=O)N[C@H](C(=O)N[C@@H](CC(N)=O)C(=O)NC(C)(C)C(=O)N[C@@H](CCC(N)=O)C(=O)N[C@H](C(=O)N[C@@H](CC(C)C)C(=O)N[C@@H](C)C(=O)N[C@@H](CCC(N)=O)C(=O)N[C@H](C(N)=O)C(C)C)[C@@H](C)CC)[C@@H](C)O)[C@@H](C)CC)[C@@H](C)CC)C(C)C)C(C)C
B4: peptide of SEQ ID NO: 89 (peptide)
peptide: IVLSLDVPIKLK([AEEA-AEEA-γGlu-C18 diacid])QILLKQERQKKQREQAKTN[Aib]QILAQV-NH2
modifications: N-terminus assumed
SMILES: CC[C@H](C)[C@H](N)C(=O)N[C@H](C(=O)N[C@@H](CC(C)C)C(=O)N[C@@H](CO)C(=O)N[C@@H](CC(C)C)C(=O)N[C@@H](CC(=O)O)C(=O)N[C@H](C(=O)N1CCC[C@H]1C(=O)N[C@H](C(=O)N[C@@H](CCCCN)C(=O)N[C@@H](CC(C)C)C(=O)N[C@@H](CCCCNC(=O)COCCOCCNC(=O)COCCOCCNC(=O)CC[C@H](NC(=O)CCCCCCCCCCCCCCCCC(=O)O)C(=O)O)C(=O)N[C@@H](CCC(N)=O)C(=O)N[C@H](C(=O)N[C@@H](CC(C)C)C(=O)N[C@@H](CC(C)C)C(=O)N[C@@H](CCCCN)C(=O)N[C@@H](CCC(N)=O)C(=O)N[C@@H](CCC(=O)O)C(=O)N[C@@H](CCCNC(=N)N)C(=O)N[C@@H](CCC(N)=O)C(=O)N[C@@H](CCCCN)C(=O)N[C@@H](CCCCN)C(=O)N[C@@H](CCC(N)=O)C(=O)N[C@@H](CCCNC(=N)N)C(=O)N[C@@H](CCC(=O)O)C(=O)N[C@@H](CCC(N)=O)C(=O)N[C@@H](C)C(=O)N[C@@H](CCCCN)C(=O)N[C@H](C(=O)N[C@@H](CC(N)=O)C(=O)NC(C)(C)C(=O)N[C@@H](CCC(N)=O)C(=O)N[C@H](C(=O)N[C@@H](CC(C)C)C(=O)N[C@@H](C)C(=O)N[C@@H](CCC(N)=O)C(=O)N[C@H](C(N)=O)C(C)C)[C@@H](C)CC)[C@@H](C)O)[C@@H](C)CC)[C@@H](C)CC)C(C)C)C(C)C
B5: peptide of SEQ ID NO: 96 (peptide)
peptide: IVLSLDVPIKLK([AEEA-AEEA-γGlu-C18 diacid])QILLKQERQKKEREQAETNKQILAQV-NH2
modifications: N-terminus assumed
SMILES: CC[C@H](C)[C@H](N)C(=O)N[C@H](C(=O)N[C@@H](CC(C)C)C(=O)N[C@@H](CO)C(=O)N[C@@H](CC(C)C)C(=O)N[C@@H](CC(=O)O)C(=O)N[C@H](C(=O)N1CCC[C@H]1C(=O)N[C@H](C(=O)N[C@@H](CCCCN)C(=O)N[C@@H](CC(C)C)C(=O)N[C@@H](CCCCNC(=O)COCCOCCNC(=O)COCCOCCNC(=O)CC[C@H](NC(=O)CCCCCCCCCCCCCCCCC(=O)O)C(=O)O)C(=O)N[C@@H](CCC(N)=O)C(=O)N[C@H](C(=O)N[C@@H](CC(C)C)C(=O)N[C@@H](CC(C)C)C(=O)N[C@@H](CCCCN)C(=O)N[C@@H](CCC(N)=O)C(=O)N[C@@H](CCC(=O)O)C(=O)N[C@@H](CCCNC(=N)N)C(=O)N[C@@H](CCC(N)=O)C(=O)N[C@@H](CCCCN)C(=O)N[C@@H](CCCCN)C(=O)N[C@@H](CCC(=O)O)C(=O)N[C@@H](CCCNC(=N)N)C(=O)N[C@@H](CCC(=O)O)C(=O)N[C@@H](CCC(N)=O)C(=O)N[C@@H](C)C(=O)N[C@@H](CCC(=O)O)C(=O)N[C@H](C(=O)N[C@@H](CC(N)=O)C(=O)N[C@@H](CCCCN)C(=O)N[C@@H](CCC(N)=O)C(=O)N[C@H](C(=O)N[C@@H](CC(C)C)C(=O)N[C@@H](C)C(=O)N[C@@H](CCC(N)=O)C(=O)N[C@H](C(N)=O)C(C)C)[C@@H](C)CC)[C@@H](C)O)[C@@H](C)CC)[C@@H](C)CC)C(C)C)C(C)C
B6: peptide of SEQ ID NO: 102 (peptide)
peptide: IVLSLD[dV]PIKLK([AEEA-AEEA-γGlu-C18 diacid])QILLKQERQKKQREQAETNKQILAQV-NH2
modifications: N-terminus assumed
SMILES: CC[C@H](C)[C@H](N)C(=O)N[C@H](C(=O)N[C@@H](CC(C)C)C(=O)N[C@@H](CO)C(=O)N[C@@H](CC(C)C)C(=O)N[C@@H](CC(=O)O)C(=O)N[C@@H](C(=O)N1CCC[C@H]1C(=O)N[C@H](C(=O)N[C@@H](CCCCN)C(=O)N[C@@H](CC(C)C)C(=O)N[C@@H](CCCCNC(=O)COCCOCCNC(=O)COCCOCCNC(=O)CC[C@H](NC(=O)CCCCCCCCCCCCCCCCC(=O)O)C(=O)O)C(=O)N[C@@H](CCC(N)=O)C(=O)N[C@H](C(=O)N[C@@H](CC(C)C)C(=O)N[C@@H](CC(C)C)C(=O)N[C@@H](CCCCN)C(=O)N[C@@H](CCC(N)=O)C(=O)N[C@@H](CCC(=O)O)C(=O)N[C@@H](CCCNC(=N)N)C(=O)N[C@@H](CCC(N)=O)C(=O)N[C@@H](CCCCN)C(=O)N[C@@H](CCCCN)C(=O)N[C@@H](CCC(N)=O)C(=O)N[C@@H](CCCNC(=N)N)C(=O)N[C@@H](CCC(=O)O)C(=O)N[C@@H](CCC(N)=O)C(=O)N[C@@H](C)C(=O)N[C@@H](CCC(=O)O)C(=O)N[C@H](C(=O)N[C@@H](CC(N)=O)C(=O)N[C@@H](CCCCN)C(=O)N[C@@H](CCC(N)=O)C(=O)N[C@H](C(=O)N[C@@H](CC(C)C)C(=O)N[C@@H](C)C(=O)N[C@@H](CCC(N)=O)C(=O)N[C@H](C(N)=O)C(C)C)[C@@H](C)CC)[C@@H](C)O)[C@@H](C)CC)[C@@H](C)CC)C(C)C)C(C)C

The binders below were run against T1, CRF1R receptor (anti-target) (assay: cell-based or functional assay).
In the case of B1, the “EC50 [nM] 0% HSA (cAMP, HTRF)” value is reported as > 100 nM and the “Emax (%) (100% = Sauvagine at 100 nM)” value is reported as 18.4%. For B2, the “EC50 [nM] 0% HSA (cAMP, HTRF)” value was > 100 nM and the “Emax (%) (100% = Sauvagine at 100 nM)” value was 14.5%. For B3, the “EC50 [nM] 0% HSA (cAMP, HTRF)” value was > 100 nM and the “Emax (%) (100% = Sauvagine at 100 nM)” value was 2.3%. B4 was tested, and the “EC50 [nM] 0% HSA (cAMP, HTRF)” value was > 100 nM and the “Emax (%) (100% = Sauvagine at 100 nM)” value was 3.7%. With B5 the “EC50 [nM] 0% HSA (cAMP, HTRF)” value was > 100 nM and the “Emax (%) (100% = Sauvagine at 100 nM)” value was 2.3%. B6 was tested, and the “EC50 [nM] 0% HSA (cAMP, HTRF)” value was > 100 nM and the “Emax (%) (100% = Sauvagine at 100 nM)” value was 9%.
